# Data as given in patent publication US20240043504A1 (published 2024).
# Substitutions are numbered along the chain they refer to.
# B1: mAb10921 (antibody, V domains shown)
# VH: EVQLVESGGGLVQPGGSLRLSCAASGITVSSNYMSWVRQAPGKGLEWVSVIYSGGSTFYADSVKGRFTISRHNSKNTLYLQMNSLRAEDTAVYYCARERNFDAFDIWGQGTMVTVSS
# VL: DIQMTQSPSSVSASVGDRVTITCRASQGISSWLAWYQQKPGKAPKLLIYAASSLQSGVPSRFSGSGSGTDFTLTISSLQPEDFATYYCQQANSFPLFTFGPGTKVDIKR
# B2: mAb10923 (antibody, V domains shown)
# VH: QVQLVQSGAEVKKPGASVKVSCKASGYTFINYYIHWVRQAPGQGLEWMGWINPNSGGTNYAQKFQGRVTMTRDTSISTAYMELSRLRSDDTAVYYCAIITIFGVVTWFDPWGQGTLVTVSS
# VL: not shown
# B3: mAb10930 (antibody, V domains shown)
# VH: EVQLVESGGGLVQPGRSLRLSCAASGFTFDDYAMYWVRQAPGKGLEWVSGISWNSGSIGYADSVKGRFTISRDNAKNSLYLQMNSLRAADTALYYCAKDKDWNSRGYYYYGMDVWGQGTTVTVSS
# VL: not shown
# B4: mAb10932 (antibody, V domains shown)
# VH: EVQLVESGGGLVQSGGSLRLSCAASGLTVSSNYMSWVRQAPGKGLEWVSVIYSGGSTFYSDSVKGRFTISRHNSKNTLYLQMNSLRAEDTAVYYCARARGDAFDIWGQGTMVTVSS
# VL: not shown
# B5: mAb10934 (antibody, V domains shown)
# VH: not shown
# VL: DIQMTQSPSSLSASVGDRVTITCQASQDIWNYINWYQQKPGKAPKLLIYDASNLKTGVPSRFSGSGSGTDFTFTISSLQPEDIATYYCQQHDDLPPTFGQGTKVEIKR
# B6: mAb10935 (antibody, V domains shown)
# VH: EVQLVESGGGLVQPGGSLRLSCAASGFTVSSNYMSWVRQAPGKGLEWVSLIYSGGSTYYADSVKGRFTISRHNSKNTLYLQMNSLRSEDTAVYYCARVPLGDYYYGMDVWGQGTTVTVSS
# VL: B5 VL with W30N, N31K, I33L, K55E, H91S, D93N, P96L, Q100G
# B7: mAb10936 (antibody, V domains shown)
# VH: QVQLVESGGGVVQPGRSLRLSCAASGFTFRNYGMHWVRQAPGKGLEWVSVIWYDGSNRYYADSVKGRFTISRDTSKNTLYLQMNSLRAEDTAVYYCARDPPITGTTGGDAFDIWGQGTMVTVSS
# VL: not shown
# B8: mAb10937 (antibody, V domains shown)
# VH: QITLKESGPTLVKPTQTLTLTCTFSGFSLSTNVVGVGWIRQPPGKALEWLALIYWNDDKRYSPSLKSRLTITKDTSKNQVVLTMTNMDPVDTATYYCAHGPTGDYFDYWGQGTLVTVSS
# VL: not shown
# B9: mAb10938 (antibody, V domains shown)
# VH: EVQLVESGGGLVQPGGSLRLSCAVSGFTVSSNYMSWVRQAPGKGLEWVSLIYSGGSTFYADSVKGRFTISRHNSKNTLYLQMNSLRAEDTAVYYCAREGGYSYDYNYWGQGTLVTVSS
# VL: B5 VL with W30R, I33L, K55E, S65I, H91Y, D93N, P96I, K103R, V104L
# B10: mAb10939 (antibody, V domains shown)
# VH: EVQLVESGGGLVQPGGSLRLSCAASGLTVSSNYMNWVRQVPGKGLEWVSVIYSGGSKFYVDSVKGRFTISRHNSKNTLYLQMNSLRPEDTAVYYCTRDAQYYGMDVWGQGTTVTVSS
# VL: DIQMTQSPSSLSASVGDRVTITCRASQSISTYLHWYQQKPGEAPKLLIYAASSLQSGVPSRFSGSGSGTDFTLTISSLQPEDFATYYCQQSYSTPPEIFGQGTKLEIKR
# B11: mAb10954 (antibody, V domains shown)
# VH: EVQLVESGGGLVQPGGSLRLSCAASGITVSSNYMSWVRQAPGKGLEWVSLIYSGGSTYYADSVKGRFTISRDNSKNTLYLQMNSLRVEDTAVYYCARDHGMAAAGYNYWGQGTLVTVSS
# VL: B5 VL with W30N, N31K, I33L, K55E, S76N, I83F, Y87F, H91Y, D93N, T97A
# B12: mAb10955 (antibody, V domains shown)
# VH: EVQLVESGGGLVQPGGSLRVSCAASGFTVSRNYMSWVRQAPGKGLEWVSVIYSGGSTFYADSVKGRFTISRDNSKNTLYLQMNSLRAEDTAIYYCARYIPRFDPWGQGTLVTVSS
# VL: B5 VL with W30S, I33L, Y36F, K42R, K55E, H91Y, D93N, P96I, K103R, V104L
# B13: mAb10956 (antibody, V domains shown)
# VH: B10 VH with N35S, V40A, K57T, V60A, H72D, P87A, T96A, A99L, Q100I, Y101K
# VL: not shown
# B14: mAb10957 (antibody, V domains shown)
# VH: EVQLVESGGGLVQPGGSLRLSCAASGVTVSSNYMSWVRQAPGKGLEWVSVIYSGGSTFYADSVKGRFTISRDNSKNTLFLQMNSLRIEDTAVYYCARDLGPYGMDVWGQGTTVTVSS
# VL: B1 VL with M4L, S10F, V11L, W32Y, S53T, D70Q, T72I, A91L, F94Y, L96G
# B15: mAb10964 (antibody, V domains shown)
# VH: QVQLQESGPGLVKPSETLSLTCTVSGGSINNYYWIWIRQPPGKGLEWIGYIYHSGSTNYNPSLKSRVTISVDTSKNQFSLKVSSVTAADTAVYYCANMVRGVYEDDYWGQGTLVTVSS
# VL: DIQMTQSPSSLSASVGDRVTITCRASQSISNYLNWYQQKPGKAPKLLIFAASSLRSGVPSRFSGSGSGTDFTLTISSLHPEDFATYYCQQNYNTPLTFGPGTKVDIKR
# B16: mAb10965 (antibody, V domains shown)
# VH: EVQLVESGGGLIQPGGSLRLSCAASVFTVSYNYMSWVRQAPGKGLEWVSVIYSGGSTYYADSVKGRFTISRDNSKNTLYLQMNSLRAEDTAVYYCARALPGWGGSFEYFDYWGQGTLVTVSS
# VL: not shown
# B17: mAb10966 (antibody, V domains shown)
# VH: EVQLVESGGGLVQPGGSLRLSCAASGLTVSSNYMSWVRQAPGKGLEWVSVIYSGGSTFYADSVKGRFTISRDNSKNTLYLQMNSLRPEDTAVYYCAREGRIAATGYGMDVWGQGTTVTVSS
# VL: not shown
# B18: mAb10967 (antibody, V domains shown)
# VH: EVQLVESGGGLVQPGGSLRLSCAASGFTVSSNYMSWVRQAPGKGLEWVSVIYPGGSTFYADSVKGRFTISRDNSKNTLYLQMNSLRAEDTAVYYCARDQRDFAWGQGTLVTVSS
# VL: B5 VL with W30S, I33L, K55E, S77G, H91Y, D93N, K103R, V104L
# B19: mAb10969 (antibody, V domains shown)
# VH: QVQLVESGGGVVQPGRSLRLSCAASGFTFSSYAMHWVRQAPGKGLEWVAVISYDGSNKYYADSVKGRFTISRDNSKNTLYLQMNSLRAEDTAVYYCARDGRTITMVRGVIDDAFDIWGQGTMVTVSS
# VL: not shown
# B20: mAb10971 (antibody, V domains shown)
# VH: B14 VH with V12I, A60S, T68S, F79Y, I87A, G100Y, P101Y
# VL: DIQLTQSPSFLSASVGDRVTITCRASQGISTYLAWYQQKPGKAPKLLIYAASTLQSGVPSRFSGSGSGTEFTLTISSLQPEDFATYYCQQLDSYPGLTFGGGTKVEIKR
# B21: mAb10982 (antibody, V domains shown)
# VH: EVQLVESGGGLVQPGGSLRLSCAASGLTVSSNYMSWVRQAPGKGLEWVSVIYSGGTTYYADSVKGRFTISRHNSKNTLSLQMNSLRAEDTAVYYCARGEGANYYGMDVWGQGTTVTVSS
# VL: QSVLTQPPSVSGAPGQRVTISCTGSSSNIGTGYDVHWYQQLPGTAPKLLIYGNSNRPSGVPDRFSGSKSGTSASLAITGLQAEDEADYYCQSYDSSLSGYVVFGGGTKLTVLG
# B22: mAb10984 (antibody, V domains shown)
# VH: EVQLVESGGGLVQPGGSLRLSCAASGLTVNRNYMSWVRQAPGKGLEWVSLIYSGGSTYYADSVKGRFTISRDNSKNTLYLQMNSLRLEDTAVYYCARGELGIPYGMDVWGQGTTVTVSS
# VL: QSVLTQPPSVSAAPGQKVTISCSGSSSNIGNNYVSWYQQLPGTAPKLLIYDNNKRPSGIPDRFSGSKSGTSATLGITGLQTGDEADYYCGTWDSSLSAGVFGGGTKLTVLG
# B23: mAb10985 (antibody, V domains shown)
# VH: EVQLVESGGGLVQPGRSLRLSCAASGFTFDDYAMHWVRQAPGKGLEWVSGISWNRGSIGYADSVKGRFTISRDNAKNSLYLQMSSLRAEDTALYYCAKDGERWDSVVVPSARNGMDVWGQGTTVTVSS
# VL: B21 VL with T31A, Y100S, V101Y, G105T, L109V
# B24: mAb10986 (antibody, V domains shown)
# VH: EVQLVESGGGLVQPGGSLRLSCAASEFTVSSNYMSWVRQAPGKGLEWVSVIYSGGSTFYADSVKGRFTISRDNSKNTLYLQMNSLRAEDTAVYYCARALPYGDLHFDYWGQGTLVTVSS
# VL: B21 VL with S54T, G99D, Y100S, V101Y, G105T, L109V
# Target: SARS-COV-2 RBD extracellular domain expressed with a C-terminal mouse IgG2a (SARS-COV-2 RBD-mFc) (SARS-CoV-2)
# Assay: SPR, captured mAb, RBD-mFc in solution, 37 C
Binder,Kd,koff,kon,t½
B1,0.273 nM,0.000125 s⁻¹,458000 M⁻¹ s⁻¹,92.4 min
B2,0.0336 nM,0.000185 s⁻¹,5.53e+06 M⁻¹ s⁻¹,62.4 min
B3,0.399 nM,0.000597 s⁻¹,1.49e+06 M⁻¹ s⁻¹,19.3 min
B4,0.153 nM,6.86e-05 s⁻¹,448000 M⁻¹ s⁻¹,168 min
B5,0.0216 nM,,,39.4 min
B6,0.0869 nM,0.000494 s⁻¹,5.68e+06 M⁻¹ s⁻¹,23.4 min
B7,0.0177 nM,6.75e-05 s⁻¹,3.81e+06 M⁻¹ s⁻¹,171 min
B8,0.0129 nM,5.74e-05 s⁻¹,4.47e+06 M⁻¹ s⁻¹,201 min
B9,0.173 nM,,,176 min
B10,0.155 nM,0.000165 s⁻¹,1.06e+06 M⁻¹ s⁻¹,70 min
B11,0.0369 nM,,,
B12,0.202 nM,,,29.8 min
B13,0.158 nM,,,33.8 min
B14,0.0463 nM,,,161 min
B15,,,,91.7 min
B16,0.237 nM,,,34.2 min
B17,0.0405 nM,,,116 min
B18,0.0229 nM,,,347 min
B19,0.174 nM,,,81.9 min
B20,0.0397 nM,9.41e-05 s⁻¹,2.37e+06 M⁻¹ s⁻¹,123 min
B21,0.21 nM,0.000258 s⁻¹,1.23e+06 M⁻¹ s⁻¹,44.8 min
B22,0.0404 nM,,,138 min
B23,0.0401 nM,,,30.8 min
B24,0.0126 nM,,,200 min
